Four molecules from patent US20140356366A1 (SAMSUNG ELECTRONICS, published 2014) can be followed below.

Test [1] deals with c-Met on MKN45 stomach cancer cells (human, UniProt P08581 25-1390). Kind of test: cell-based or functional assay.
The target of test [2] is T1, human c-Met/Fc fusion protein (R&D Systems) (human, UniProt P08581 25-932).
T1 construct: Bought reagent; Treated as one molecule; also called c-Met-Fc (#358-MT/CF, R&D Systems); human c-Met/Fc protein; not shown: Fc part of the bought fusion protein
The test is described as follows: Biacore T100, antibody captured by human Fab capturer on CM5 chip, c-Met-Fc injected. Here is the method:
(§1) The anti-c-Met/anti-EGFR bispecific antibody was analyzed for affinity for the two antigens (c-Met/EGFR) using a Biacore T100 instrument (GE). […] The chip surface was regenerated by injecting a 10 mM Glycine-HCl solution (pH 1.5). For affinity evaluation, the data was fitted using the BIAevaluation software (GE Healthcare, Biacore T100 evaluation software).
(SPR reads the build-up and loss of mass on a sensor chip optically.)

For test [3], the target named is T2, EGFR-Fc (#344-ER, R&D Systems) (UniProt P00533 25-645).
T2 construct: Bought reagent; only name and catalogue number are printed; not shown: Fc part of the bought fusion protein
Kind of test: Biacore T100, antibody captured by human Fab capturer on CM5 chip, EGFR-Fc injected. Here is the method: as §1

The target in test [4] is T3, synthesized peptide CIEDPSQAPDC (SEQ ID NO: 130), E168D.
T3 construct: Core EDPSQ, E168D mutation of c-Met
T3 peptide: CIEDPSQAPDC
The test is described as follows: PEPSCAN ELISA on synthesized peptides. Here is the method: (§2) The peptides were maintained at room temperature for 30 minutes by using a 5% blocking solution to provoke a reaction (4% ovalbumin, 5% horse serum, and 1% Tween 80). […] Thereafter, the resultant product was treated with rabbit-anti-sheep antibody (SIGMA) and washed with PBS, and the washed product was then treated with peroxidase-attached swine-anti-rabbit antibody (SIGMA) and washed with PBS. Then, the resultant was treated with 2 ul/ml of peroxidase 2,2′-azino-di-3-ethylbenzthiazoline sulfonate (ABTS) (SIGMA) in 3% H₂O₂, and a color reaction was measured after 1 hour.

The target of test [5] is T4, synthesized peptide CSPQIEDPSQC (SEQ ID NO: 127), E168D.
T4 construct: Core EDPSQ, E168D mutation of c-Met
T4 peptide: CSPQIEDPSQC
The test is described as follows: PEPSCAN ELISA on synthesized peptides. Here is the method: as §2
(An ELISA detects its analyte on a solid surface through an enzyme-linked reagent.)

The target in test [6] is T5, synthesized peptide CQIEDPSQAPC (SEQ ID NO: 129), E168D.
T5 construct: Core EDPSQ, E168D mutation of c-Met
T5 peptide: CQIEDPSQAPC
The test is described as follows: PEPSCAN ELISA on synthesized peptides. Here is the method: as §2

For test [7], the target named is T6, peptide EAPSQ (SEQ ID NO: 134).
T6 peptide: EAPSQ
The test is described as follows: Biacore, huAbF46 immobilized on CM5 chip, peptide injected.

Test [8] concerns the target T7, peptide AEPSQ (SEQ ID NO: 133).
T7 peptide: AEPSQ
The description is as above.

For test [9], the target named is T8, peptide EEPAQ (SEQ ID NO: 136).
T8 peptide: EEPAQ
The description is as above.

Test [10] deals with T9, peptide EEASQ (SEQ ID NO: 135).
T9 peptide: EEASQ
The test is described as above.

Test [11] has as its target T10, peptide EEPSA (SEQ ID NO: 137).
T10 peptide: EEPSA
The description is as above.

For test [12], the target named is T11, peptide EEPSQ (SEQ ID NO: 73).
T11 peptide: EEPSQ
The test is described as above.

T1 sequence (P08581 25-932 limits assumed): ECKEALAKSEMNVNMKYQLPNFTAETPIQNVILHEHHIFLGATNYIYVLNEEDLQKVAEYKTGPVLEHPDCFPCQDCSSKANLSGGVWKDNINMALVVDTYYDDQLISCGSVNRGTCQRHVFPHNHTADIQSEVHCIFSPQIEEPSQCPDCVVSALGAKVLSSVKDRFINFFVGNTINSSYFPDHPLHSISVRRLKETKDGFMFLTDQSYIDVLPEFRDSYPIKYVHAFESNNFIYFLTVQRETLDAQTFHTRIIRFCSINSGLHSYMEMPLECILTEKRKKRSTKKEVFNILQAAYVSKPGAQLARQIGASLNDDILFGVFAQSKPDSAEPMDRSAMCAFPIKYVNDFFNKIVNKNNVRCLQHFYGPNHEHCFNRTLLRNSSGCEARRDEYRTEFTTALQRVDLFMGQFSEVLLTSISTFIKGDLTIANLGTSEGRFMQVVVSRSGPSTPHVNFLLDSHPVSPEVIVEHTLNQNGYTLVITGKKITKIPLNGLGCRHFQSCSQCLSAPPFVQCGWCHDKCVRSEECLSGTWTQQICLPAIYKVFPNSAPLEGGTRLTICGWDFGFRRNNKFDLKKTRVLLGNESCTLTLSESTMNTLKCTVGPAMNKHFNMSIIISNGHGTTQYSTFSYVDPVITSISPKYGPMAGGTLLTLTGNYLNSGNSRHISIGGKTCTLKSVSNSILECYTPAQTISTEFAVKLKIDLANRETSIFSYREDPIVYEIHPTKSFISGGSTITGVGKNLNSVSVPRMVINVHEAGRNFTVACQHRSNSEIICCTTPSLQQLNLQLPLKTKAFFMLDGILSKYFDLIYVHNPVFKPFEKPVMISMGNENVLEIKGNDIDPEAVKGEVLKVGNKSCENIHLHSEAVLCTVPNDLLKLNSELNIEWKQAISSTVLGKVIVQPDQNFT
Chain of c-Met on MKN45 stomach cancer cells (P08581 25-1390): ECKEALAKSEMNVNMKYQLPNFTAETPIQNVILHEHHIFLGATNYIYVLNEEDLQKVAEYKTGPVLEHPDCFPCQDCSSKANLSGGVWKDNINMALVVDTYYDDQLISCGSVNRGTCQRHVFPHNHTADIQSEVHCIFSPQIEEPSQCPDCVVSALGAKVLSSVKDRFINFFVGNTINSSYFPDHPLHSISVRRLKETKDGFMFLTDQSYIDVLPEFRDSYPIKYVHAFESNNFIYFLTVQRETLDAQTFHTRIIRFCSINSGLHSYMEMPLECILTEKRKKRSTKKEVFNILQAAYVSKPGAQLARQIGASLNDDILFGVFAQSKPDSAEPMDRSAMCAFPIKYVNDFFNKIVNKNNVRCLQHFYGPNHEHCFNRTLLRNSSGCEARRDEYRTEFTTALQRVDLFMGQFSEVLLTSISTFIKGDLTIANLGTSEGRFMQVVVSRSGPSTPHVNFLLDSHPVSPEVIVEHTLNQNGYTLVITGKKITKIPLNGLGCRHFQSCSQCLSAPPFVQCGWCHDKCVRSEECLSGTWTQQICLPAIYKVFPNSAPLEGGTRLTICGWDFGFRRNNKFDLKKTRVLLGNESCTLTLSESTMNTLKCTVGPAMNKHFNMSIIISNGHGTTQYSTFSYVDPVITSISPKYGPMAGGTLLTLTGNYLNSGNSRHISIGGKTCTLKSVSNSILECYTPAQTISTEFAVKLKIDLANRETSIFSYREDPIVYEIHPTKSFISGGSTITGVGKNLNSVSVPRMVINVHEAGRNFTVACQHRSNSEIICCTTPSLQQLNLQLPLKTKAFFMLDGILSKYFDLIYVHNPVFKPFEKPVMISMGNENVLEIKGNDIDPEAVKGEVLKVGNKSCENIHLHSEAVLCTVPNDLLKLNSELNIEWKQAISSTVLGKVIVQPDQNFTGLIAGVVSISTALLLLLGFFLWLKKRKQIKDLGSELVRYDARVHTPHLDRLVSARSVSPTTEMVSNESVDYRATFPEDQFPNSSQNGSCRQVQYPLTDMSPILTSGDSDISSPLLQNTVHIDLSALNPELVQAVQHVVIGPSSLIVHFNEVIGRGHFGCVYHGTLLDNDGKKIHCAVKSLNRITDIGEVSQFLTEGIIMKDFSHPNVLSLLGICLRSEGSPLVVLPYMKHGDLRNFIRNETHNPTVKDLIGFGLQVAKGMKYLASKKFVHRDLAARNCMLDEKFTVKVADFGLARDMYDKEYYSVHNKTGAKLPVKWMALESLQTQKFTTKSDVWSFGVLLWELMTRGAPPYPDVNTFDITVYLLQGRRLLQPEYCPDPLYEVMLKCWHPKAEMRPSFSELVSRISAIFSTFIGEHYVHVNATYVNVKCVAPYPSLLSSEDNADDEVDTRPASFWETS

B1: anti-c-Met/anti-EGFR bispecific antibody ME-03 (bispecific antibody)
heavy: EVQLVESGGGLVQPGGSLRLSCAASGFTFTDYYMSWVRQAPGKGLEWLGFIRNKANGYTTEYSASVKGRFTISRDNSKNTLYLQMNSLRAEDTAVYYCARDNWFAYWGQGTLVTVSSASTKGPSVFPLAPCSRSTSESTAALGCLVKDYFPEPVTVSWNSGALTSGVHTFPAVLQSSGLYSLSSVVTVPSSNFGTQTYTCNVDHKPSNTKVDKTVERKCCVECPPCPAPPVAGPSVFLFPPKPKDTLMISRTPEVTCVVVDVSHEDPEVQFNWYVDGVEVHNAKTKPREEQFNSTFRVVSVLTVVHQDWLNGKEYKCKVSNKGLPAPIEKTISKTKGQPREPQVYTLPPSREEMTKNQVSLTCLVKGFYPSDIAVEWESNGQPENNYKTTPPMLDSDGSFFLYSKLTVDKSRWQQGNVFSCSVMHEALHNHYTQKSLSLSPGKGGGGSGGGGSQVQLVQSGAEVKKPGSSVKVSCKASGFTFTDYKIHWVRQAPGQGLEWMGYINPNSGYSTYASKFQGRVTITADKSTSTAYMELSSLRSEDTAVYYCARLSPGGYYVMDAWGQGTTVTVSSGGGGSGGGGSGGGGSDIQMTQSPSSLSASVGDRVTITCRASQGINNYLNWYQQKPGKAPKLLIYNTNNLQTGVPSRFSGSGSGTEFTLTISSLQPEDEATYYCLQHNSFPTFGQGTKLEIKRT
light: DIQMTQSPSSLSASVGDRVTITCKSSQSLLASGNQNNYLAWYQQKPGKAPKMLIIWASTRVSGVPSRFSGSGSGTDFTLTISSLQPEDFATYYCQQSYSRPYTFGQGTKVEIKRTVAAPSVFIFPPSDEQLKSGTASVVCLLNNFYPREAKVQWKVDNALQSGNSQESVTEQDSKDSTYSLSSTLTLSKADYEKHKVYACEVTHQGLSSPVTKSFNRGEC
With B1, in test [1], the “c-Met degradation (relative total amount of c-Met, ELISA of lysates of MKN45 cells treated 24 hrs with 5 µg/ml antibody)” value was found to be 88.4%.

B2: anti-c-Met/anti-EGFR bispecific antibody ME-01 (bispecific antibody)
heavy: EVQLVESGGGLVQPGGSLRLSCAASGFTFTDYYMSWVRQAPGKGLEWLGFIRNKANGYTTEYSASVKGRFTISRDNSKNTLYLQMNSLRAEDTAVYYCARDNWFAYWGQGTLVTVSSASTKGPSVFPLAPCSRSTSESTAALGCLVKDYFPEPVTVSWNSGALTSGVHTFPAVLQSSGLYSLSSVVTVPSSNFGTQTYTCNVDHKPSNTKVDKTVERKCCVECPPCPAPPVAGPSVFLFPPKPKDTLMISRTPEVTCVVVDVSHEDPEVQFNWYVDGVEVHNAKTKPREEQFNSTFRVVSVLTVVHQDWLNGKEYKCKVSNKGLPAPIEKTISKTKGQPREPQVYTLPPSREEMTKNQVSLTCLVKGFYPSDIAVEWESNGQPENNYKTTPPMLDSDGSFFLYSKLTVDKSRWQQGNVFSCSVMHEALHNHYTQKSLSLSPGKGGGGSGGGGSQVQLVQSGAEVKKPGSSVKVSCKASGFTFTDYKIHWVRQAPGQGLEWMGYFNPNSGYSTYAQKFQGRVTITADKSTSTAYMELSSLRSEDTAVYYCARLSPGGYYVMDAWGQGTTVTVSSGGGGSGGGGSGGGGSDIQMTQSPSSLSASVGDRVTITCRASQGINNYLNWYQQKPGKAPKRLIYNTNNLQTGVPSRFSGSGSGTEFTLTISSLQPEDFATYYCLQHNSFPTFGQGTKLEIKRT
light: DIQMTQSPSSLSASVGDRVTITCKSSQSLLASGNQNNYLAWYQQKPGKAPKMLIIWASTRVSGVPSRFSGSGSGTDFTLTISSLQPEDFATYYCQQSYSRPYTFGQGTKVEIKRTVAAPSVFIFPPSDEQLKSGTASVVCLLNNFYPREAKVQWKVDNALQSGNSQESVTEQDSKDSTYSLSSTLTLSKADYEKHKVYACEVTHQGLSSPVTKSFNRGEC
Turning to B2, in test [1], the “c-Met degradation (relative total amount of c-Met, ELISA of lysates of MKN45 cells treated 24 hrs with 5 µg/ml antibody)” value worked out at 86.8%.

B3: anti-c-Met/anti-EGFR bispecific antibody ME-03S (bispecific antibody)
heavy: EVQLVESGGGLVQPGGSLRLSCAASGFTFTDYYMSWVRQAPGKGLEWLGFIRNKANGYTTEYSASVKGRFTISRDNSKNTLYLQMNSLRAEDTAVYYCARDNWFAYWGQGTLVTVSSASTKGPSVFPLAPCSRSTSESTAALGCLVKDYFPEPVTVSWNSGALTSGVHTFPAVLQSSGLYSLSSVVTVPSSNFGTQTYTCNVDHKPSNTKVDKTVERKCCVECPPCPAPPVAGPSVFLFPPKPKDTLMISRTPEVTCVVVDVSHEDPEVQFNWYVDGVEVHNAKTKPREEQFNSTFRVVSVLTVVHQDWLNGKEYKCKVSNKGLPAPIEKTISKTKGQPREPQVYTLPPSREEMTKNQVSLTCLVKGFYPSDIAVEWESNGQPENNYKTTPPMLDSDGSFFLYSKLTVDKSRWQQGNVFSCSVMHEALHNHYTQKSLSLSPGKGGGGSGGGGSQVQLVQSGAEVKKPGSSVKVSCKASGFTFTDYKIHWVRQAPGQCLEWMGYINPNSGYSTYASKFQGRVTITADKSTSTAYMELSSLRSEDTAVYYCARLSPGGYYVMDAWGQGTTVTVSSGGGGSGGGGSGGGGSDIQMTQSPSSLSASVGDRVTITCRASQGINNYLNWYQQKPGKAPKLLIYNTNNLQTGVPSRFSGSGSGTEFTLTISSLQPEDEATYYCLQHNSFPTFGQCTKLEIKRT
light: DIQMTQSPSSLSASVGDRVTITCKSSQSLLASGNQNNYLAWYQQKPGKAPKMLIIWASTRVSGVPSRFSGSGSGTDFTLTISSLQPEDFATYYCQQSYSRPYTFGQGTKVEIKRTVAAPSVFIFPPSDEQLKSGTASVVCLLNNFYPREAKVQWKVDNALQSGNSQESVTEQDSKDSTYSLSSTLTLSKADYEKHKVYACEVTHQGLSSPVTKSFNRGEC
notes: Secondary mutant (disulfide-stabilised) anti-EGFR scFv fused to the C-terminus of the Fc of L3-1Y-IgG2
As for B3, in test [2], the Kd (commonly the free concentration of one partner at which half of the binding sites on the other are occupied at equilibrium, for simple one-to-one binding) came out at 230 pM; the off-rate (koff) (commonly a measure of how fast the partners let go of each other) amounted to 0.00016 s⁻¹; the kon (in general, the second-order rate constant of association) was determined as 670000 M⁻¹ s⁻¹. In test [3], this molecule yielded a Kd of 120 pM, an off-rate constant (koff) of 2.7e-05 s⁻¹ and a kon of 240000 M⁻¹ s⁻¹.

B4: humanized antibody huAbF46 (H4-heavy / H4-light) (antibody, V domains shown)
VH: EVQLVESGGGLVQPGGSLRLSCAASGFTFTDYYMSWVRQAPGKGLEWLGFIRNKANGYTTEYSASVKGRFTISRDNSKNTLYLQMNSLRAEDTAVYYCARDNWFAYWGQGTLVTVSS
VL: DIQMTQSPSSLSASVGDRVTITCKSSQSLLASGNQNNYLAWHQQKPGKAPKMLIIWASTRVSGVPSRFSGSGSGTDFTLTISSLQPEDFATYYCQQSYSAPLTFGQGTKVEIKR
notes: Purified on Protein A as a whole antibody; also called humanized antibody AbF46
In the case of B4, the binding result in test [4] is listed as “no binding”; in [5], “no binding”; in test [6], “no binding”; in test [7], “no binding (tested: 100 nM to 0.39 nM of the peptides)”; in [8] it was “no binding (tested: 100 nM to 0.39 nM of the peptides)”; in test [10], “no binding (tested: 100 nM to 0.39 nM of the peptides)”. The binding result in test [11] is on record as “no binding (tested: 100 nM to 0.39 nM of the peptides)”. Besides, the Kd in test [9] stood at 1430 pM; in test [12], 1640 pM.
